For the assay, the target named is Trop-2 (on Trop-2-expressing HCC1806 cells) (human) (UniProt P09758). The assay can be described thus: cell-based or functional assay.
UniProt P09758, sequence (P09758 27-323): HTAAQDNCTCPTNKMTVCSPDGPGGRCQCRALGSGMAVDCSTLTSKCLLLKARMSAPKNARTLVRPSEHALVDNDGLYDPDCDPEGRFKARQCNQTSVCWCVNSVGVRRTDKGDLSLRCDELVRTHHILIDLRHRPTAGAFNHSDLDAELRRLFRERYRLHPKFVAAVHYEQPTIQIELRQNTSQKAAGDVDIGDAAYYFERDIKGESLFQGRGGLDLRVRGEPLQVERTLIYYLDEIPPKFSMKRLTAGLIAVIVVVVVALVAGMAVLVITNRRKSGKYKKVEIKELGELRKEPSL

For the substance “hRS7-CAR, a human Trop-2-targeting CAR (SPCD8α-VKhRS7-(GGGGS)3-VHhRS7-HingeCD8α-TMCD8α-ICD4-1BB-ICDCD3ζ) (receptor)”, the Cytotoxicity by flow cytometry (percent of HCC1806 cells killed, E:T 3:1, 3 h) is 42% and the Specific lysis of HCC1806 cells relative to mock-transfected NK-92MI (flow cytometry, E:T 3:1, 3 h) amounted to 2 fold.

The values are drawn from patent publication US20160361360A1.
